{"source": "patent US8753841B2", "about": "“Enzyme that catalyzes a peptide-forming reaction from a carboxy component and an amine component, microbe producing the same, and a method of producing a dipeptide using the enzyme or microbe” (Ajinomoto Co., Inc., priority 2002, dated 2014)", "test": "Comparison of ability to catalyze peptide formation with known enzymes", "assay_type": "biochemical", "conditions": "enzyme of present invention = 100.0", "text": "The peptide-forming ability of the present enzyme was compared with that of known enzymes. Carboxypeptidase Y described in EP 278787A1 and the thiol endopeptidases (ficin, papain, bromelain, and chymopapain) described in EP 359399B1 were used as the known enzymes, and they were used in the form of purified enzymes (manufactured by Sigma). The enzyme uniformly purified in Example 3 was used as a source of the present enzyme of the present invention. […] As has been described above, the present enzyme was verified to have an extremely high peptide production rate unlike any known enzyme in the prior art. Furthermore, the enzyme of the present invention is a dimer having a molecular weight of about 75,000. In contrast, the molecular weight of the carboxypeptidase Y has been reported to be about 61,000, while the molecular weight of thiol endopeptidase has been reported to be about 23,000 to 36,000. Thus, the L-alanyl-L-glutamine production rate of the enzyme of the present invention as compared to those of the carboxypeptidase Y and the thiol endopeptidase is even greater when the rate is expressed per molecular weight than when it is expressed per unit weight as indicated in the examples."}
{"molecule": "Carboxypeptidase Y: known enzyme described in EP 278787A1, purified enzyme manufactured by Sigma (protein, UniProt P00729 112-532, looked up) Carboxypeptidase Y: KIKDPKILGIDPNVTQYTGYLDVEDEDKHFFFWTFESRNDPAKDPVILWLNGGPGCSSLTGLFFELGPSSIGPDLKPIGNPYSWNSNATVIFLDQPVNVGFSYSGSSGVSNTVAAGKDVYNFLELFFDQFPEYVNKGQDFHIAGESYAGHYIPVFASEILSHKDRNFNLTSVLIGNGLTDPLTQYNYYEPMACGEGGEPSVLPSEECSAMEDSLERCLGLIESCYDSQSVWSCVPATIYCNNAQLAPYQRTGRNVYDIRKDCEGGNLCYPTLQDIDDYLNQDYVKEAVGAEVDHYESCNFDINRNFLFAGDWMKPYHTAVTDLLNQDLPILVYAGDKDFICNWLGNKAWTDVLPWKYDEEFASQKVRNWTASITDEVAGEVKSYKHFTYLRVFNGGHMVPFDVPENALSMVNEWIHGGFSL", "values": [{"measurement": "Ratio of L-Ala-L-Gln production rate per enzyme unit weight", "value": 0.0191}]}
